Experimental findings from PMC4963209 (2016) are described below.

The assay concerns the target T1, Juno (UniProt Q9EQF4 20-222).
T1 chain: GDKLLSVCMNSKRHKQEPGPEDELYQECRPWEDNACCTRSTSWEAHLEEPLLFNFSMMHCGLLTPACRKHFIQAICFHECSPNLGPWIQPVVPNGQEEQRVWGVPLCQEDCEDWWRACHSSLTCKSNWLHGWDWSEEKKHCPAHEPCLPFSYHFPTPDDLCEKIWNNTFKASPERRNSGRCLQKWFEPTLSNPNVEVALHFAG
The assay can be described thus: MST.

B1: Izumo1 ectodomain (domain or fragment)
chain: CIKCDQFVTDALKTFENTYLNDHLPHDIHKNVMRMVNHEVSSFGVVTSAEDSYLGAVDENTLEQATWSFLKDLKRITDSDLKGELFIKELLWMLRHQKDIFNNLARQFQKEVLCPNKCGVMSQTLIWCLKCEKQLHICRKSLDCGERHIEVHRSEDLVLDCLLSWHRASKGLTDYSFYRVWENSSETLIAKGKEPYLTKSMVGPEDAGNYRCVLDTINQGHATVIRYDVTVLPPKHSEENQPPNIITQEEHETPVHVTPQTPPGQEPESELYPELHPELYPELIPTVAQNPEKKMKTR
modifications: N-acetylglucosamine attached to N204 (seen in the crystal structure)
As a reminder, the Kd is the concentration at which binding is half-saturated. The low end stands for higher affinity, the high end for lower affinity. Turning to B1, the Kd was found to be 620 nM.
